How the values were obtained:
[1] = biological target: the molecule itself; experiment: cryo-EM structure; Eag1-CaM complex purified with Ca2+, reconstituted into 90:5:5 POPC:POPG:cholesterol liposomes with 300 mM KCl; polarized with valinomycin and exchange of the external solution to 300 mM NaCl (a smaller dataset on unpolarized vesicles too); 10 mM Tris pH 8.0
[2] = biological target: T1, vertebrate calmodulin (CaM) (vertebrate, UniProt P0DP23 1-149); experiment: as above; conditions: both partners purified
T1 construct: vertebrate calmodulin, expressed from a separate vector without a tag; source: HEK293S GnTI- cells infected with rEag1 and CaM baculoviruses, co-purified with rEag1 in the presence of Ca2+

- binding result [2]: binds
B1: rat Eag1 with residues 773 to 886 truncated (rEag1) (natural protein, UniProt Q63472 1-962, looked up)
chain: MTMAGGRRGLVAPQNTFLENIVRRSNDTNFVLGNAQIVDWPIVYSNDGFCKLSGYHRAEVMQKSSACSFMYGELTDKDTVEKVRQTFENYEMNSFEILMYKKNRTPVWFFVKIAPIRNEQDKVVLFLCTFSDITAFKQPIEDDSCKGWGKFARLTRALTSSRGVLQQLAPSVQKGENVHKHSRLAEVLQLGSDILPQYKQEAPKTPPHIILHYCVFKTTWDWIILILTFYTAILVPYNVSFKTRQNNVAWLVVDSIVDVIFLVDIVLNFHTTFVGPAGEVISDPKLIRMNYLKTWFVIDLLSCLPYDVINAFENVDEGISSLFSSLKVVRLLRLGRVARKLDHYIEYGAAVLVLLVCVFGLAAHWMACIWYSIGDYEIFDEDTKTIRNNSWLYQLALDIGTPYQFNGSGSGKWEGGPSKNSVYISSLYFTMTSLTSVGFGNIAPSTDIEKIFAVAIMMIGSLLYATIFGNVTTIFQQMYANTNRYHEMLNSVRDFLKLYQVPKGLSERVMDYIVSTWSMSRGIDTEKVLQICPKDMRADICVHLNRKVFKEHPAFRLASDGCLRALAMEFQTVHCAPGDLIYHAGESVDSLCFVVSGSLEVIQDDEVVAILGKGDVFGDVFWKEATLAQSCANVRALTYCDLHVIKRDALQKVLEFYTAFSHSFSRNLILTYNLRKRIVFRKISDVKREEEERMKRKNEAPLILPPDHPVRRLFQRFRQQKEARLAAERGGRDLDDLDVEKGNALTDHTSANHSLVKASVVTVRESPATPVSFYPIPEQTLQATVLEVKHELKEDIKALNAKMTSIEKQLSEILRILMSRGSSQSPQDTCEVSRPQSPESDRDIFGAS
notes: rat Eag1 voltage-dependent K+ channel; construct corresponding to rat Eag1 with residues 773 to 886 truncated; Tetrameric channel (C4 symmetric up map); The C-terminal GFP-His6 tag was linked by a preScission protease site and removed; also called Eag channel; Eag Kv channel; not shown: GFP, C-terminal, cleaved; His6, C-terminal, cleaved
- binding result [1]: binds

— paper PMC9674223, “Voltage-sensor movements in the Eag Kv channel under an applied electric field” (Proceedings of the National Academy of Sciences of the …, 2022)
